Data on 3 molecules can be found in article doi:10.1101/2021.12.11.472236 (bioRxiv, 2021).

As a reminder, the stoichiometry N is a count of units in the complex or per binding partner.

Several values for one entry are separate records, joined by “and”; a condition that tells them apart may be missing. Identical values can stand only once.

The chains are these.
B1: 10-28 Fab (Fab, V domains shown)
VH: QVQLVESGGGVVQPGRSLRLSCAASGFTFSSYDMHWVRQAPGKGLEWVAVISYDGSSKFYAESVKGRFTISRDNSKNTLYLQMNSLRAEETAVYYCVKDGEQLVPLFDYWGQGTLVTVSS
VL: not shown
B2: 10-40 Fab (Fab, V domains shown)
VH: QLQLQESGPGLVKPSETLSLTCTVSGGSISSSNFYWGWIRQPPGKGLEWIASITYSGRTFYNPSLKSRVAISVDTSKNQFSLKLSSVTAADTAVYYCARTFPSYYDRSGYHYLNYGMDVWGQGTTVTVSS
VL: NFMLTQPHSMSESPGKTVTISCTRSSGSIASNYVQWYQQRPGSSPTTVIYEDNQRPSGVPDRFSGSIDSSSNSASLTISGLKTEDEADYYCQSYDSSSWVFGGGTKLTVL
B3: 11-11 Fab (Fab, V domains shown)
VH: QVQLQESGPGLVKPSQTLSLTCTVSGGSISSGGYYWSWIRQHPGKGLEWIGYIYYSGSTYYNPSLKSRVTISVDTSKNQFSLKVSSVTAADTAVYYCASSNYYDGSGYNLLESYGMDVWGQGTSVTVSS
VL: QSVLTQPPSVSGAPGQRVTISCTGSSSNIGAGYDVHWYQQLPGTAPKLLIYGNSNRPSGVPDRFSGSRSGTSASLAITGLQAEDEADYYCQSYDSSLSGSWVFGGGTKVTVL

The target in the first assay is S2P-prefusion-stabilized spike protein from SARS-CoV-2 WA-1 (SARS-CoV-2, WA-1, UniProt P0DTC2, stabilised). Kind of assay: cryo-EM structure.
In the case of B1, the binding result is “binds”.

B2: the binding result is given as “binds”.

Regarding B3, the binding result is on record as “binds”.

Another assay has as its target S2P-prefusion-stabilized spike protein from SARS-CoV-2 B.1.351 (SARS-CoV-2, B.1.351 (Beta), strain). The experiment in a line: cryo-EM structure.
For the molecule B1, the “stoichiometry N” value came to 3 Fabs per spike.

In the case of B2, the “stoichiometry N” value was found to be 3 Fabs per spike.

B3: the “stoichiometry N” value is 3 Fabs per spike and 2 Fabs per spike.
